Results reported in US20260159601A1 (Hoffmann-La Roche, published 2026).

Tests used:
[1] = target: human transferrin receptor 1 on MDCKII cells transfected with huTfR1 (human, UniProt P02786 1-760); test: cell-based or functional assay
human CD20 [2] = target: T1, human CD20 (human, UniProt P11836 1-297); test: cell-based or functional assay
T1 sequence: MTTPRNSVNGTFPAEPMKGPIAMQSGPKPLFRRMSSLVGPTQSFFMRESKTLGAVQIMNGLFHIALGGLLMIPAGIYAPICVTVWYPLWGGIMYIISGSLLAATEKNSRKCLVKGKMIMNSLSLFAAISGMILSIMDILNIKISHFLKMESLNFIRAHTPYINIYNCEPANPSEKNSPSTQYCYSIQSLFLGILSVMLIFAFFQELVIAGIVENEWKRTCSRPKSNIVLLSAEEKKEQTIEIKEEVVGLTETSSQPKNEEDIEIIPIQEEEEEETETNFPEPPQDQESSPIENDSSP

[3] = target: CD20 (species not stated, in-vitro-measured KD used in the cynomolgus monkey PK model); test: in vitro measurement, method not stated; value used in the PK model
[4] = target: T2, cynomolgus monkey transferrin receptor 1 (cynomolgus monkey, UniProt H9EXL1 89-760 (rhesus entry)); test: surface plasmon resonance at 37° C.; cynomolgus TfR1; SPR at 37° C.
T2 construct: also called cyTfR1

human CD20 [5] = target: T1, human CD20; test: flow cytometry on a human B-cell lymphoma cell line, 30 min at 4 C, detection with FITC-labeled F(ab)'2 goat anti-human Fc-gamma-specific antibody, median fluorescence intensity

Chain of human transferrin receptor 1 on MDCKII cells transfected with huTfR1 (P02786 whole entry): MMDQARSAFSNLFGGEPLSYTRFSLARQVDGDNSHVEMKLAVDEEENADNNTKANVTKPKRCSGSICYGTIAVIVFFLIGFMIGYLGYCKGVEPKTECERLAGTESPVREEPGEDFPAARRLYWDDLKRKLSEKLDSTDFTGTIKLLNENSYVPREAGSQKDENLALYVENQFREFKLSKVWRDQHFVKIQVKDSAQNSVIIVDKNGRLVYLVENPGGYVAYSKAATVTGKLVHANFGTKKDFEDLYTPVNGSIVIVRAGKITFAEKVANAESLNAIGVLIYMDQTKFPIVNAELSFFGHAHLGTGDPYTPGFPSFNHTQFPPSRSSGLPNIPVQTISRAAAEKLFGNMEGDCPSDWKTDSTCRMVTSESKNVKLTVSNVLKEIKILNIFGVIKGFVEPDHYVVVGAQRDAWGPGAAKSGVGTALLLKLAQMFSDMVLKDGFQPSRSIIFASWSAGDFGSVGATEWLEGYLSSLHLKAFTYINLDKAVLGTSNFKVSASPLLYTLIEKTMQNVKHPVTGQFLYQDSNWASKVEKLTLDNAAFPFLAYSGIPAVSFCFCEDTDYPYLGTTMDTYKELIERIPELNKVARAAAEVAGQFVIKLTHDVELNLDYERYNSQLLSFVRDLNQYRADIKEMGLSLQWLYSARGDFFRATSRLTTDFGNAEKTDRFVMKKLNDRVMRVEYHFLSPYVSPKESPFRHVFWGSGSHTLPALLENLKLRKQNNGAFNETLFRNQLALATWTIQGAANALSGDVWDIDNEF
T2 sequence (chain, as listed by the source): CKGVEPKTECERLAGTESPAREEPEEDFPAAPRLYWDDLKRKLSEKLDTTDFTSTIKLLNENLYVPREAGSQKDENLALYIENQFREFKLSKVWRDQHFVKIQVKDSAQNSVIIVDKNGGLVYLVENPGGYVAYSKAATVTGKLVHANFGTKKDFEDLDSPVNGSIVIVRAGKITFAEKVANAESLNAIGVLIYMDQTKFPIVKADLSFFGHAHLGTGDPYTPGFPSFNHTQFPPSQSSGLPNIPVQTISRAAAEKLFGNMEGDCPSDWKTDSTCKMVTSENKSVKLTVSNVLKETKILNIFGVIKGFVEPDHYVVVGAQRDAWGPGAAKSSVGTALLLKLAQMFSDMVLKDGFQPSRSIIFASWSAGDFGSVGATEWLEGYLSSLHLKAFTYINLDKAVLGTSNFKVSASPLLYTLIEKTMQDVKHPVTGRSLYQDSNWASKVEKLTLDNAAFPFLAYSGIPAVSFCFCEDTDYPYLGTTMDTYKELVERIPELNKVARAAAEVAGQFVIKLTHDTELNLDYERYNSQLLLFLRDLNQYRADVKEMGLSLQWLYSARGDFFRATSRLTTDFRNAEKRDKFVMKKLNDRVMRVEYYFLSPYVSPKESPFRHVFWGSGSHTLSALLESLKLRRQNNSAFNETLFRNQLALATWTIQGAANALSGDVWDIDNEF

B1: RG6035 (bispecific antibody, human IgG1, kappa, L234A L235A)
light 1: DIVMTQTPLSLPVTPGEPASISCRSSKSLLHSNGITYLYWYLQKPGQSPQLLIYQMSNLVSGVPDRFSGSGSGTDFTLKISRVEAEDVGVYYCAQNLELPYTFGGGTKVEIKRTVAAPSVFIFPPSDRKLKSGTASVVCLLNNFYPREAKVQWKVDNALQSGNSQESVTEQDSKDSTYSLSSTLTLSKADYEKHKVYACEVTHQGLSSPVTKSFNRGEC
heavy 1: VQLVQSGAEVKKPGSSVKVSCKASGYAFSYSWINWVRQAPGQGLEWMGRIFPGDGDTDYNGKFKGRVTITADKSTSTAYMELSSLRSEDTAVYYCARNVFDGYWLVYWGQGTLVTVSSASTKGPSVFPLAPSSKSTSGGTAALGCLVEDYFPEPVTVSWNSGALTSGVHTFPAVLQSSGLYSLSSVVTVPSSSLGTQTYICNVNHKPSNTKVDEKVEPKSCDKTHTCPPCPAPEAAGGPSVFLFPPKPKDTLMISRTPEVTCVVVDVSHEDPEVKFNWYVDGVEVHNAKTKPREEQYNSTYRVVSVLTVLHQDWLNGKEYKCKVSNKALGAPIEKTISKAKGQPREPQVCTLPPSRDELTKNQVSLSCAVKGFYPSDIAVEWESNGQPENNYKTTPPVLDSDGSFFLVSKLTVDKSRWQQGNVFSCSVMHEALHNHYTQKSLSLSPG
light 2: AIQLTQSPSSLSASVGDRVTITCRASQSISSYLAWYQQKPGKAPKLLIYRASTLASGVPSRFSGSGSGTDFTLTISSLQPEDFATYYCQQNYASSNVDNTFGGGTKVEIKSSASTKGPSVFPLAPSSKSTSGGTAALGCLVKDYFPEPVTVSWNSGALTSGVHTFPAVLQSSGLYSLSSVVTVPSSSLGTQTYICNVNHKPSNTKVDKKVEPKSC
heavy 2: not shown
notes: human IgG1 Fc with L234A, L235A, P329G; also called RO7121932; BS-CD20
intracellular uptake in MDCKII-huTfR cells against non-transfected MDCKII-parental cells, 30-minute pulse, IgG ELISA [1]: 30 fold
EC50 of CD19+-B-cell depletion, ex vivo human tonsil-derived cells, average of three donors (human CD20 [2]): 0.4 nM
EC50 of CD19+-B-cell depletion, ex vivo human tonsil-derived cells, donor T1 (human CD20 [2]): 0.44 nM
EC50 of CD19+-B-cell depletion, ex vivo human tonsil-derived cells, donor T2 (human CD20 [2]): 0.2 nM
EC50 of CD19+-B-cell depletion, ex vivo human tonsil-derived cells, donor T3 (human CD20 [2]): 0.55 nM
Kd [3]: 3.3 nM
Kd [4]: 694 nM
EC50 (read off the curve) (human CD20 [5]): ~3 nM
